Measurements as given in PMC8131606.
One block for each substance: values may come before it.

Assays:
[1] = target: WT opsin (thermostable bovine opsin with C-terminal 3X-FLAG tag) (bovine) (UniProt P02699)
[2] = target: F3 (F220C, F221A, F228A) opsin (bovine) (UniProt P02699)
[3] = target: F2 (F221A, F228A) opsin (bovine) (UniProt P02699)
[4] = target: F1 (F228A) opsin (bovine) (UniProt P02699)

mono-exponential fit constant (α) of p(≥ 1) scramblase versus PPR* after reconstitution of purified opsin into vesicles [1]: 0.25
Substance: WT opsin (thermostable bovine opsin with C-terminal 3X-FLAG tag) (from UniProt P02699 1-348) (receptor)

ratio of mono-exponential fit constants αF3/αWT from scramblase-based analysis of reconstitution into vesicles [2]: 0.4
Substance: F3 (F220C, F221A, F228A) opsin (from UniProt P02699 1-348) (receptor)

ratio of mono-exponential fit constants α(construct)/αWT from scramblase-based analysis of reconstitution into vesicles [3]: 1
Substance: F2 (F221A, F228A) opsin (from UniProt P02699 1-348) (receptor)

ratio of mono-exponential fit constants α(construct)/αWT from scramblase-based analysis of reconstitution into vesicles [4]: 1
Substance: F1 (F228A) opsin (from UniProt P02699 1-348) (receptor)
